In patent US20240270821A1, “GIP/GLP1/GCG TRI-RECEPTOR AGONISTS AND USES THEREOF” (priority 2023, published 2024):
Starred links: 1 amine or outer side, 2 acyl side, 3 side chain; linkers in the order of their positions; H or OH if unused. Non-standard residues stand in square brackets, D forms with d. Groups on a side chain read outwards from the residue. No end group written: not given here. *: point of attachment. C20 diacid = O=C(O)CCCCCCCCCCCCCCCCCCC(=O)*; C18 diacid = O=C(O)CCCCCCCCCCCCCCCCC(=O)*; αMePhe(2-F) = C[C@](N)(Cc1ccccc1F)C(=O)O; γGlu = O=C(O)[C@H](CCC(=O)[*:2])N[*:1]; NMeY = CN[C@@H](Cc1ccc(O)cc1)C(=O)O; αMeF = C[C@](N)(Cc1ccccc1)C(=O)O; αMeL = CC(C)C[C@](C)(N)C(=O)O; Orn = NCCC[C@H](N)C(=O)O; AEEA = NCCOCCOCC(=O)O; Aib = CC(C)(N)C(=O)O

T1: human GIP receptor (human) (UniProt P48546)
T1 sequence (looked up): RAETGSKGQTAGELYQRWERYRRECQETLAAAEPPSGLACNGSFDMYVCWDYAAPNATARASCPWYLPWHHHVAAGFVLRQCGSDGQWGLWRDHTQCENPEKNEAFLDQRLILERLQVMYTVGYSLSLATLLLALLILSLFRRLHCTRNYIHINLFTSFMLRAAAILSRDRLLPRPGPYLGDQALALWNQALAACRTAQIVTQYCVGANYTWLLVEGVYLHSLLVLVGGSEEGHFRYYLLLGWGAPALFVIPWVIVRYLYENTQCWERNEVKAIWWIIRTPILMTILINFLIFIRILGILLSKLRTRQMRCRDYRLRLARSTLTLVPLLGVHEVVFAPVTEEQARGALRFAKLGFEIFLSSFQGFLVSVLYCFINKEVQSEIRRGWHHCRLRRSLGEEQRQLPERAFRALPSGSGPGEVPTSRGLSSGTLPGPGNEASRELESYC


Tests used:
Test in all cases: cell-based or functional assay
[1] = target: T1, human GIP receptor (human)
[2] = target: Pro-Link-tagged Human GLP-1R (human) (UniProt P43220)
[3] = target: hGLP-1R (Homo sapiens, UniProt P43220)
[4] = target: human GLP-1R (SNAP-GLP-1R expressed in HEK293 cells) (human) (UniProt P43220)
[5] = target: human glucagon receptor (human) (UniProt P47871)
Chain of human glucagon receptor (human) (P47871 26-477): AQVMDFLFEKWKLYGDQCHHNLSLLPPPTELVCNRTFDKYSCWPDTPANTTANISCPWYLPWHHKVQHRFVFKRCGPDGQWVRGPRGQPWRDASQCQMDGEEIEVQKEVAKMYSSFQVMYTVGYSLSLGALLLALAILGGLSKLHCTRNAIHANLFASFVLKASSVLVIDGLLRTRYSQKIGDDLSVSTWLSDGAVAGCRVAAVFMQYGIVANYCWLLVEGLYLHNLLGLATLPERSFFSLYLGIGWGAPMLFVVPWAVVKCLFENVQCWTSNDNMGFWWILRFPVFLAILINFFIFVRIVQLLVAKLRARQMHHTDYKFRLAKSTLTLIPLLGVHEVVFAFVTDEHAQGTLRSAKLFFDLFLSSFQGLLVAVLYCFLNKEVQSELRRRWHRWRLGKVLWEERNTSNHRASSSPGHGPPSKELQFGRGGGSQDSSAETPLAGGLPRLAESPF

Chain of Pro-Link-tagged Human GLP-1R (human) (P43220 24-463): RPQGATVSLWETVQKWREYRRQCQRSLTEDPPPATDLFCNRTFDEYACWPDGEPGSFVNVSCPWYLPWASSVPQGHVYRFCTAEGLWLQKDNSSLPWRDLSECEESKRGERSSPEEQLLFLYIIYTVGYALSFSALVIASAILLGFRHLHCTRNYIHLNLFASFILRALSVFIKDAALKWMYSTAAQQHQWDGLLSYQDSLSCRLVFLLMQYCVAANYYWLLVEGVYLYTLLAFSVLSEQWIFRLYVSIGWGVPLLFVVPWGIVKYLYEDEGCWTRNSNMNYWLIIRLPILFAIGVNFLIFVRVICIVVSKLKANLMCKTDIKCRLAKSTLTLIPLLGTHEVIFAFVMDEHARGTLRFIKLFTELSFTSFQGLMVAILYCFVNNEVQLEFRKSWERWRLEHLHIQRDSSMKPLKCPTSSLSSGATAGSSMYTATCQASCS
Chain of hGLP-1R (P43220 24-463): as above
Chain of human GLP-1R (SNAP-GLP-1R expressed in HEK293 cells) (human) (P43220 24-463): as above

Row | Binder | Relative cAMP EC50 [1] [nM] | cAMP Rel EC50 (in the presence of 1% HSA) [1] [nM] | % Stimulation Max [2] [%] | hGLP1R β-arrestin Rel EC50 [2] [nM] | Relative cAMP EC50 [3] [nM] | cAMP Rel EC50 (in the presence of 1% HSA) [3] [nM] | GLP1R Internalization EC50 [4] [nM] | Internalization % TOP [4] [%] | Relative cAMP EC50 [5] [nM] | cAMP Rel EC50 (in the presence of 1% HSA) [5] [nM] | cAMP Rel EC50 (1% HSA) [1] [nM] | cAMP Rel EC50 (1% HSA) [3] [nM] | cAMP Rel EC50 (1% HSA) [5] [nM]
1 | Y[Aib]QGT[αMePhe(2-F)]TSDYSKLLDKIAQK([AEEA-γGlu-C20 diacid])AFIEYLLEGGPSSGEPPPSEG-NH2 [Example 295] | 0.126 | 61.1 | 44.1 | 16.4 | 0.831 | 232 | 31.4 | 88.4 | 2.15 | 605 | – | – | –
2 | HXQGTXTSDYSILLDKKAAXAFIEYLIEAGPSSGEPPPSEG (not fully specified; non-natural residues, acylated Lys, C-terminal amide; synthetic construct; SITE 2: note = 2-Aminoisobutyric Acid; SITE 6: note = alpha-methyl-2-fluoro-L-phenylalanine; SITE 17: note = Lysine is chemically modified through conjugation of the epsilon-amino group of the Lysine side chain with (2-[2-(2-Amino-ethoxy)-ethoxy]-acetyl)-(gamma-Glu)-CO-(CH2) 18-) [Example 298] | 0.138 | – | 86.4 | 3.29 | 0.277 | – | – | – | 1.04 | – | 41.3 | 70.9 | 1570
3 | [NMeY][Aib]QGT[αMeF]TSDYSILLDKQAAKAFVQWLIAGGPSSGEPPPSEG-NH2 (not fully specified (residue 20)) [Example 301] | 0.722 | – | 59.1 | 13.2 | 0.641 | – | – | – | 6.73 | – | 81.8 | 82.4 | 1500
4 | Y[Aib]QGTFTSDYSI[αMeL]LDKK([AEEA-γGlu-C20 diacid])AQRAFIEYLLEGGPSSGEPPPSEG-NH2 [Example 289] | 0.382 | 105 | 47.5 | 5.96 | 0.449 | 139 | 10.9 | 86.5 | 5.02 | 1750 | – | – | –
5 | [NMeY][Aib]QGT[αMeF]TSDYSILLDKIAAKAFVQWLIAGGPSSGEPPPSEG-NH2 (not fully specified (residue 20)) [Example 300] | 0.0975 | – | 40.3 | 15.7 | 1.05 | – | – | – | 6.54 | – | 12.9 | 98 | 976
6 | [NMeY][Aib]QGT[αMeF]TSDYSILLDKQAAKAFVQWLIEGGPSSGEPPPSEG-NH2 (not fully specified (residue 20)) [Example 302] | 0.7 | – | 56.6 | 11.2 | 0.621 | – | – | – | 4.47 | – | 91.8 | 73.6 | 1370
7 | YXQGTFTSDFSIXLDKKAQXAFIEYLLEGGPSSGEPPPSEG (non-natural residues; acylated Lys; C-terminal amide; synthetic construct; SITE 2: note = 2-Aminoisobutyric Acid; SITE 13: note = alpha-methyl-leucine; SITE 17: note = Lysine is chemically modified through conjugation of the epsilon-amino group of the Lysine side chain with (2-[2-(2-Amino-ethoxy)-ethoxy]-acetyl)-(gamma-Glu)-CO-(CH2) 18-CO2H; SITE 20: n) [Example 288] | 0.234 | 59.1 | 18 | 16.3 | 1.89 | 616 | 30.3 | 72.4 | 5.17 | 3580 | – | – | –

Other lines, results leading:

Row | Relative cAMP EC50 [1] [nM] | cAMP Rel EC50 (in the presence of 1% HSA) [1] [nM] | % Stimulation Max [2] [%] | hGLP1R β-arrestin Rel EC50 [2] [nM] | Relative cAMP EC50 [3] [nM] | cAMP Rel EC50 (in the presence of 1% HSA) [3] [nM] | GLP1R Internalization EC50 [4] [nM] | Internalization % TOP [4] [%] | Relative cAMP EC50 [5] [nM] | cAMP Rel EC50 (in the presence of 1% HSA) [5] [nM] | cAMP Rel EC50 (1% HSA) [1] [nM] | cAMP Rel EC50 (1% HSA) [3] [nM] | cAMP Rel EC50 (1% HSA) [5] [nM] | Binder
8 | 0.113 | – | 39.6 | 19.2 | 3.36 | – | – | – | 2.08 | – | 26.1 | 1080 | 2500 | Y[Aib]QGT[αMePhe(2-F)]TSDYSKILDKIAQK([AEEA-γGlu-C20 diacid])AFIEYLLEGGPSSGEPPPSEG-NH2 [Example 311]
9 | 0.127 | – | 47.8 | 9.21 | 0.551 | – | – | – | 2.31 | – | 48 | 172 | 1720 | Y[Aib]QGT[αMePhe(2-F)]TSDYSKLLDKIAQKAFIEYLIEGGPSSGEPPPSEG-NH2 (not fully specified (residue 20)) [Example 304]
10 | – | – | 41.4 | 16.9 | 3.15 | – | – | – | 14.2 | – | 237 | 477 | 4950 | Y[Aib]QGTFTSDYSI[αMeL]LDKIAAK([AEEA-AEEA-γGlu-C20 diacid])[Orn]FVQYLIAGGPSSGEPPPSEG-NH2 [Example 308]
11 | 0.446 | – | 70.8 | 9.86 | 0.836 | – | – | – | 1.68 | – | 65.3 | 209 | 1880 | Y[Aib]QGT[αMeF]TSDYSILLDKIAAKNFIEYLVEGGPSSGEPPPSEG-NH2 (not fully specified (residue 20)) [Example 307]
12 | 1 | – | 58.3 | 23.3 | 1.48 | – | – | – | 6.73 | – | 92.4 | 415 | 1500 | Y[Aib]QGTFTSDYSI[αMeL]LDKQAAKAFVEWLLAGGPSSGEPPPSEG-NH2 (not fully specified (residue 20)) [Example 305]
13 | 0.32 | – | 47.2 | 6.72 | 0.808 | – | – | – | 9.28 | – | 424 | 251 | 3910 | Y[Aib]QGT[αMePhe(2-F)]TSDYSKLLDKQAQK([AEEA-γGlu-C20 diacid])QFIEYLIEGGPSSGEPPPSEG-NH2 [Example 309]
14 | 0.207 | – | 74.5 | 6.11 | 0.926 | – | 34 | 91.1 | 3.47 | – | 42.6 | 204 | 842 | Y[Aib]QGTFTSDYSI[αMeL]LDKQAAKQFVEWLLA[Aib]GPSSGEPPPSEG (not fully specified (residue 20)) [Example 329]
15 | 0.398 | – | 29.7 | 3.76 | 0.508 | – | – | – | 4.05 | – | 85.1 | 140 | 1560 | Y[Aib]QGTFTSDYSK[αMeL]LDKK([AEEA-γGlu-C20 diacid])AQQAFVQWLIEGGPSSGEPPPSEG-NH2 [Example 315]
